Experimental data: patent publication US20110129935A1, “PROTEIN STABILITY ASSAY USING A FLUORESCENT REPORTER OF PROTEIN FOLDING” (James Cook University, priority 2008, published 2011)

Experiment: Thermal aggregation profiles and Tagg by SDS-PAGE
Type: physicochemical
Conditions: heat treated separately 30 minutes, 42 to 64° C.
Procedure: After incubation, reactions were stopped by transferring the samples to ice for 10 minutes prior to centrifugation at 18,000 r.p.m. for 20 minutes at 4° C. in a Beckman Coulter (Fullerton, Calif., USA) centrifuge (rotor: F12×8.2). The supernatants (3 or 5 μl) were then analyzed by 10% NEXT-GEL SDS-PAGE (Amresco, Solon, Ohio, USA). The gels were illuminated on a transilluminator at 365 nm followed by Coomassie blue staining. Coomassie-stained protein bands corresponding to Ffold were integrated using ImageJ (see the website at rsbweb.nih.gov/ij/) and plotted against the temperature.
To determine the Tagg at which 50% of proteins were aggregated, the thermal aggregation profile data were fit to the following sigmoid function:
Ffold=1−(1/(1+e^(Tagg-T/c))
where Ffold is the normalized fluorescence intensity at temperature T, and c is the Hill slope factor.
Ffold was then determined by SDS-PAGE. For this experiment, equal amounts of the three proteins were mixed to avoid variations in buffer composition and protein concentrations.
Due to the oligomeric quaternary structure of these proteins, experiments were performed separately to avoid the formation of heterogeneous protein complexes.

B1: GK: tetrameric glycerol kinase from E. coli (protein, UniProt P0A6F3 2-502, looked up)
Glycerol kinase: TEKKYIVALDQGTTSSRAVVMDHDANIISVSQREFEQIYPKPGWVEHDPMEIWATQSSTLVEVLAKADISSDQIAAIGITNQRETTIVWEKETGKPIYNAIVWQCRRTAEICEHLKRDGLEDYIRSNTGLVIDPYFSGTKVKWILDHVEGSRERARRGELLFGTVDTWLIWKMTQGRVHVTDYTNASRTMLFNIHTLDWDDKMLEVLDIPREMLPEVRRSSEVYGQTNIGGKGGTRIPISGIAGDQQAALFGQLCVKEGMAKNTYGTGCFMLMNTGEKAVKSENGLLTTIACGPTGEVNYALEGAVFMAGASIQWLRDEMKLINDAYDSEYFATKVQNTNGVYVVPAFTGLGAPYWDPYARGAIFGLTRGVNANHIIRATLESIAYQTRDVLEAMQADSGIRLHALRVDGGAVANNFLMQFQSDILGTRVERPEVREVTALGAAYLAGLAVGFWQNLDELQEKAVIEREFRPGIETTERNYRYAGWKKAVKRAMAWEEHDE
In the case of B1, the Tagg is reported as 50.4±0.3 °C.
